Source: patent US20230406950A1 (LYVGEN BIOPHARMA, published 2023)
Where two headings read alike, the source gives them in different places.

T1: human GITR expressed on cells (human, UniProt Q9Y5U5 26-241)
T1 construct: whole, on cells; also called TNFRSF18; CD357
T1 sequence (looked up): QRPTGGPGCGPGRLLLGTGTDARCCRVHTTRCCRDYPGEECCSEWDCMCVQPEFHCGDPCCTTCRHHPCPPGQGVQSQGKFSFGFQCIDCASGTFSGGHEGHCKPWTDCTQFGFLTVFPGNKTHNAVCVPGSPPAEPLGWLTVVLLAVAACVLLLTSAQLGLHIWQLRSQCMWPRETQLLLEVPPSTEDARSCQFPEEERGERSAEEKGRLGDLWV

T2: human OX40 expressed on CHO cells (human, UniProt P43489 29-277)
T2 construct: whole, on cells
T2 sequence (looked up): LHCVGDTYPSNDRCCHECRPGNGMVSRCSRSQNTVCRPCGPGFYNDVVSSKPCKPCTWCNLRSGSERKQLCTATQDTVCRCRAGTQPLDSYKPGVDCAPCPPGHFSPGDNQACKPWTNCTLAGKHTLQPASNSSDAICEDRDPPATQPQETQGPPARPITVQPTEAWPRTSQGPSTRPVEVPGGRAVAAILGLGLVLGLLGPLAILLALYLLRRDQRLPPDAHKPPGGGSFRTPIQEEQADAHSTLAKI

B1: Ly750 (bispecific antibody, human IgG1, kappa)
heavy: QVQLQESGPGLVKPSETLSLTCTVSGFSLTSYNVHWIRQPPGKGLEWIGVIWSGVRTDYNSVLKSRVTISVDTSKNQFSLKLSSVTAADTAVYYCARGTYDANYHDVMDAWGQGTMVTVSSASTKGPSVFPLAPSSKSTSGGTAALGCLVKDYFPEPVTVSWNSGALTSGVHTFPAVLQSSGLYSLSSVVTVPSSSLGTQTYICNVNHKPSNTKVDKKVEPKSCDKTHTCPPCPAPELLGPSVFLFPPKPKDTLMISRTPEVTCVVVDVSHEDPEVKFNWYVDGVEVHNAKTKPREEQYNSTYRVVSVLTVLHQDWLNGKEYKCKVSNKALPAPIEKTISKAKGQPREPQVYTLPPSREEMTKNQVSLTCLVKGFYPSDIAVEWESNGQPENNYKTTPPVLDSDGSFFLYSKLTVDKSRWQQGNVFSCSVMHEALHNHYTQKSLSLSPGGGGGSGGGGSGGGGSGGGGSDIQMTQSPSSLSASVGDRVTITCRASQDIRSNLNWYQQKPGGAVKLLIYYTSRLHSGVPSRFSGSGSGTDYTLTISSLQPEDFATYFCQQSEKLPRTFGGGTKVEIRGGGGSGGGGSGGGGSGGGGSQVQLVQSGAEVKKPGASVKVSCKASGYTFAGFEMHWVRQAPGQGLEWMGAIDPKTGGTDYNQKFKDRVTMTRDTSISTAYMELSRLRSDDTAVYYCARDLGYFDVWGQGTLVTVSS
light: DTVLTQSPATLSLSPGERATLSCRASKSVRTGMHWYQQKPGQAPRLLVYGASNLESGIPARFSGSGSGTDFTLTISSLEPEDFATYFCHQSWNHFTFGQGTKLEIKRTVAAPSVFIFPPSDEQLKSGTASVVCLLNNFYPREAKVQWKVDNALQSGNSQESVTEQDSKDSTYSLSSTLTLSKADYEKHKVYACEVTHQGLSSPVTKSFNRGEC
notes: Anti-GITR/CD137: TM677 heavy chain fused to Ly1630 scFv (VL-VH)
B2: Ly751 (bispecific antibody, human IgG1, kappa)
heavy: QVQLQESGPGLVKPSETLSLTCTVSGFSLTSYNVHWIRQPPGKGLEWIGVIWSGVRTDYNSVLKSRVTISVDTSKNQFSLKLSSVTAADTAVYYCARGTYDANYHDVMDAWGQGTMVTVSSASTKGPSVFPLAPSSKSTSGGTAALGCLVKDYFPEPVTVSWNSGALTSGVHTFPAVLQSSGLYSLSSVVTVPSSSLGTQTYICNVNHKPSNTKVDKKVEPKSCDKTHTCPPCPAPELLGPSVFLFPPKPKDTLMISRTPEVTCVVVDVSHEDPEVKFNWYVDGVEVHNAKTKPREEQYNSTYRVVSVLTVLHQDWLNGKEYKCKVSNKALPAPIEKTISKAKGQPREPQVYTLPPSREEMTKNQVSLTCLVKGFYPSDIAVEWESNGQPENNYKTTPPVLDSDGSFFLYSKLTVDKSRWQQGNVFSCSVMHEALHNHYTQKSLSLSPGGGGGSGGGGSGGGGSGGGGSQVQLVQSGAEVKKPGASVKVSCKASGYTFAGFEMHWVRQAPGQGLEWMGAIDPKTGGTDYNQKFKDRVTMTRDTSISTAYMELSRLRSDDTAVYYCARDLGYFDVWGQGTLVTVSSGGGGSGGGGSGGGGSGGGGSDIQMTQSPSSLSASVGDRVTITCRASQDIRSNLNWYQQKPGGAVKLLIYYTSRLHSGVPSRFSGSGSGTDYTLTISSLQPEDFATYFCQQSEKLPRTFGGGTKVEIR
light: B1 light
notes: Anti-GITR/CD137: TM677 heavy chain fused to Ly1630 scFv (VH-VL); TM677 light chain
B3: Ly764 (bispecific antibody, human IgG1, kappa)
heavy: QVQLVQSGAEVKKPGASVKVSCKASGYTFAGFEMHWVRQAPGQGLEWMGAIDPKTGGTDYNQKFKDRVTMTRDTSISTAYMELSRLRSDDTAVYYCARDLGYFDVWGQGTLVTVSSASTKGPSVFPLAPSSKSTSGGTAALGCLVKDYFPEPVTVSWNSGALTSGVHTFPAVLQSSGLYSLSSVVTVPSSSLGTQTYICNVNHKPSNTKVDKKVEPKSCDKTHTCPPCPAPELLGPSVFLFPPKPKDTLMISRTPEVTCVVVDVSHEDPEVKFNWYVDGVEVHNAKTKPREEQYNSTYRVVSVLTVLHQDWLNGKEYKCKVSNKALPAPIEKTISKAKGQPREPQVYTLPPSREEMTKNQVSLTCLVKGFYPSDIAVEWESNGQPENNYKTTPPVLDSDGSFFLYSKLTVDKSRWQQGNVFSCSVMHEALHNHYTQKSLSLSPGK
light: DIQMTQSPSSLSASVGDRVTITCRASQDIRSNLNWYQQKPGGAVKLLIYYTSRLHSGVPSRFSGSGSGTDYTLTISSLQPEDFATYFCQQSEKLPRTFGGGTKVEIRRTVAAPSVFIFPPSDEQLKSGTASVVCLLNNFYPREAKVQWKVDNALQSGNSQESVTEQDSKDSTYSLSSTLTLSKADYEKHKVYACEVTHQGLSSPVTKSFNRGECGGGGSGGGGSGGGGSGGGGSDIQMTQSPSSLSASVGDRVTITCRASQDISNYLNWYQQKPGKAPKLLIYYTSRLRSGVPSRFSGSGSGTDFTLTISSLQPEDFATYYCQQGHTLPPTFGQGTKVEIKGGGGSGGGGSGGGGSGGGGSEVQLVQSGAEVKKPGASVKVSCKASGYTFTDSYMSWVRQAPGQGLEWIGDMYPDNGDSSYNQKFRERVTITRDTSTSTAYLELSSLRSEDTAVYYCVLAPRWYFSVWGQGTLVTVSS
notes: Anti-OX40/CD137: Ly1630 heavy chain
B4: Ly762 (bispecific antibody, human IgG1, kappa)
heavy: QVQLVQSGAEVKKPGASVKVSCKASGYTFAGFEMHWVRQAPGQGLEWMGAIDPKTGGTDYNQKFKDRVTMTRDTSISTAYMELSRLRSDDTAVYYCARDLGYFDVWGQGTLVTVSSASTKGPSVFPLAPSSKSTSGGTAALGCLVKDYFPEPVTVSWNSGALTSGVHTFPAVLQSSGLYSLSSVVTVPSSSLGTQTYICNVNHKPSNTKVDKKVEPKSCDKTHTCPPCPAPELLGPSVFLFPPKPKDTLMISRTPEVTCVVVDVSHEDPEVKFNWYVDGVEVHNAKTKPREEQYNSTYRVVSVLTVLHQDWLNGKEYKCKVSNKALPAPIEKTISKAKGQPREPQVYTLPPSREEMTKNQVSLTCLVKGFYPSDIAVEWESNGQPENNYKTTPPVLDSDGSFFLYSKLTVDKSRWQQGNVFSCSVMHEALHNHYTQKSLSLSPGGGGGSGGGGSGGGGSGGGGSDIQMTQSPSSLSASVGDRVTITCRASQDISNYLNWYQQKPGKAPKLLIYYTSRLRSGVPSRFSGSGSGTDFTLTISSLQPEDFATYYCQQGHTLPPTFGQGTKVEIKGGGGSGGGGSGGGGSGGGGSEVQLVQSGAEVKKPGASVKVSCKASGYTFTDSYMSWVRQAPGQGLEWIGDMYPDNGDSSYNQKFRERVTITRDTSTSTAYLELSSLRSEDTAVYYCVLAPRWYFSVWGQGTLVTVSS
light: DIQMTQSPSSLSASVGDRVTITCRASQDIRSNLNWYQQKPGGAVKLLIYYTSRLHSGVPSRFSGSGSGTDYTLTISSLQPEDFATYFCQQSEKLPRTFGGGTKVEIRRTVAAPSVFIFPPSDEQLKSGTASVVCLLNNFYPREAKVQWKVDNALQSGNSQESVTEQDSKDSTYSLSSTLTLSKADYEKHKVYACEVTHQGLSSPVTKSFNRGEC
notes: Ly1630 light chain
B5: Ly763 (bispecific antibody, human IgG1, kappa)
heavy: QVQLVQSGAEVKKPGASVKVSCKASGYTFAGFEMHWVRQAPGQGLEWMGAIDPKTGGTDYNQKFKDRVTMTRDTSISTAYMELSRLRSDDTAVYYCARDLGYFDVWGQGTLVTVSSASTKGPSVFPLAPSSKSTSGGTAALGCLVKDYFPEPVTVSWNSGALTSGVHTFPAVLQSSGLYSLSSVVTVPSSSLGTQTYICNVNHKPSNTKVDKKVEPKSCDKTHTCPPCPAPELLGPSVFLFPPKPKDTLMISRTPEVTCVVVDVSHEDPEVKFNWYVDGVEVHNAKTKPREEQYNSTYRVVSVLTVLHQDWLNGKEYKCKVSNKALPAPIEKTISKAKGQPREPQVYTLPPSREEMTKNQVSLTCLVKGFYPSDIAVEWESNGQPENNYKTTPPVLDSDGSFFLYSKLTVDKSRWQQGNVFSCSVMHEALHNHYTQKSLSLSPGGGGGSGGGGSGGGGSGGGGSEVQLVQSGAEVKKPGASVKVSCKASGYTFTDSYMSWVRQAPGQGLEWIGDMYPDNGDSSYNQKFRERVTITRDTSTSTAYLELSSLRSEDTAVYYCVLAPRWYFSVWGQGTLVTVSSGGGGSGGGGSGGGGSGGGGSDIQMTQSPSSLSASVGDRVTITCRASQDISNYLNWYQQKPGKAPKLLIYYTSRLRSGVPSRFSGSGSGTDFTLTISSLQPEDFATYYCQQGHTLPPTFGQGTKVEIK
light: B4 light
notes: Ly1630 light chain

Legend:
[1] = target: T3, human CD137 expressed on cells (human, UniProt Q07011 24-255); assay: FACS on CHO cells expressing human CD137 (MFI)
T3 construct: whole, on cells; also called 4-1BB; TNFRSF9
T3 sequence (Q07011 24-255): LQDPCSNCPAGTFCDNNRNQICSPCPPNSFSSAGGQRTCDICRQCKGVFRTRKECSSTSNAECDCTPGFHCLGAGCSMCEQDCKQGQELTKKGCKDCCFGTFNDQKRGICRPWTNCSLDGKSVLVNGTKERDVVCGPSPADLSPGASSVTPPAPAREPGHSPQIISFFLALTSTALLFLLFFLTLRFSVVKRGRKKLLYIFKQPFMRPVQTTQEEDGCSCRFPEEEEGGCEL
Experimental: (§1) Anti-GITR/CD137 bi-specific antibodies were analyzed by FACS for their binding properties to human GITR and/or human CD137 expressed on CHO cells. Briefly, cultured cells were harvested, counted and cell viability was evaluated using the Trypan Blue exclusion method. Viable cells were then adjusted to 2×10⁶ cells per mL in PBS containing 2% BSA. 100 μL of this cell suspension were further aliquoted per well into a V-bottom 96-well plate. […] After incubation for 2 hours at 4° C., cells were centrifuged (3 min, 1000× g), washed with 250 μL/well BSA-containing FACS Stain Buffer, resuspended and incubated for an additional 1 hour at 4° C. with 100 μL/well fluorochrome-conjugated anti-IgG antibody for detection of the bisepecific antibody. Cells were then washed with 250 μL/well BSA-containing FACS Stain Buffer, resuspended in 100 μL/well FACS Stain Buffer, acquired and analyzed using a FACS machine. Binding of the bispecific antibodies to human GITR or human CD137 expressing CHO cells were evaluated and the mean fluorescence intensity is plotted in histograms or dot plots.

[2] = target: T1, human GITR expressed on cells; assay: flow cytometry (FACS), MFI, CHO cells expressing human GITR
Experimental: as §1

[3] = target: T2, human OX40 expressed on CHO cells; assay: FACS on CHO cells expressing human OX40 (MFI)
Experimental: as §1, with “Anti-OX40/CD137” for “Anti-GITR/CD137”, “OX40” for “GITR”, “1000×g),” for “1000× g),”

[4] = target: T3, human CD137 expressed on cells; assay: FACS on CHO cells expressing human CD137 (MFI); remark: listed apart in the source
Experimental: as §1, with “Anti-OX40/CD137” for “Anti-GITR/CD137”, “OX40” for “GITR”, “1000×g),” for “1000× g),”

| Binder | EC50 (read off the curve) [1] | binding result [2] | EC50 (read off the curve) [3] | EC50 (read off the curve) [4] | binding result [3] |
| --- | --- | --- | --- | --- | --- |
| B1 | ~200 ng/mL | binds | – | – | – |
| B2 | ~200 ng/mL | binds | – | – | – |
| B3 | – | – | ~900 ng/mL | ~200 ng/mL | – |
| B4 | – | – | – | ~100 ng/mL | binds |
| B5 | – | – | – | ~100 ng/mL | binds |
